Measurements published in patent publication US20240417450A1 (UNIVERSITY OF TOKYO, published 2024).
Substitutions are numbered along the chain they refer to.

B1: RS_H007_L001 (antibody, V domains shown)
VH: EVQLQQSGSELVKSGASVKLSCTVSGFNFTNYYIHWVRQRTEQGLEWIGRIDPENNQTTYAPKFQGKATMTADTSSNTAYLQLTSLTSEDTAVYYCARSTVLDYWGHGTTLTVSS
VL: DVLMTQSPASLSVSLGDRATISCRASQSIVHTNGNTYLEWYLQKPGQSPKLLIYKVSNRFSGVPDRFSGSGSGTDFILKISRVEAEDLGVYYCFQGSHVPPTFGGGTKLEVK
B2: RS_H000_L000GR Fab (Fab, V domains shown)
VH: B1 VH with N31D, N56D, Q57E
VL: B1 VL with S7T, A9L, S12P, R18Q, T20S
notes: Fab made by papain digestion of the W27 recombinant IgG expressed in CHO cells; also called IgG W27 Fab
B3: W27G2 antibody (mouse hybridoma-producing IgA) (antibody, V domains shown)
VH: B1 VH with N31D, N56D, Q57E
VL: DVLMTQTPLSLPVSLGDQASISCRASQSIVHTNGNTYLEWYLQKPGQSPKLLIYKVSNRFSGVPDRFSGSGSGTDFILKISRVEAEDLGVYYCFQGSHVPPTFGGGTKLEVKR
notes: Hybridoma-producing IgA from intestinal mucosa lamina propria B cells; also called W27 antibody; W27G2-CHT
B4: RS_H007_L005 (antibody, V domains shown)
VH: B1 VH
VL: B1 VL with A25S
B5: RS_H000_L005 (antibody, V domains shown)
VH: B1 VH with N31D, N56D, Q57E
VL: B1 VL with A25S
B6: RS_H007_L004 (antibody, V domains shown)
VH: B1 VH
VL: B1 VL with L11M, A25S
B7: RS_H000_L001 (antibody, V domains shown)
VH: B1 VH with N31D, N56D, Q57E
VL: B1 VL
notes: recombinant multimeric IgA made with H, L and J chain vectors (mainly dimers by SDS-PAGE); also called rW27
B8: RS_H007_L002 (antibody, V domains shown)
VH: B1 VH
VL: B1 VL with A19V

What was measured:
[1] = molecular target: T1, E. coli wild-type SHMT, GST fusion protein (E. coli, UniProt P0A825 1-417); experiment: ELISA, GST fusion protein immobilised at 2 ug/ml, antibody dilution series
T1 construct: Overexpressed in E. coli as a GST fusion protein, purified and immobilised on the ELISA plate at 2 ug/ml; not shown: Glutathione-S-transferase (GST) fusion partner
T1 sequence: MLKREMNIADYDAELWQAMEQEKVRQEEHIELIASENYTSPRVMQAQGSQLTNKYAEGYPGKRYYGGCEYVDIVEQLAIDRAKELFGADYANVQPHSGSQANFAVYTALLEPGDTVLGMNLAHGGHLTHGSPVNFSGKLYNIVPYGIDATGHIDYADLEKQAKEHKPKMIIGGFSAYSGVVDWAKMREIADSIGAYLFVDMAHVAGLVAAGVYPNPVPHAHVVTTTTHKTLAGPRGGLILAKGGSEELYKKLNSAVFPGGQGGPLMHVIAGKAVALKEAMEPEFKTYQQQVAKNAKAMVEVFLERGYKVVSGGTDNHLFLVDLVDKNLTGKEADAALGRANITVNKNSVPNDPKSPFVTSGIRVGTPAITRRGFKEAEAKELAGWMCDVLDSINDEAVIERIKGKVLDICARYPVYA

[2] = molecular target: T2, E. coli SHMT (25-45) (E. coli); experiment: X-ray crystal structure of the Fab-peptide complex
T2 construct: Final purified peptide used for crystallisation
T2 peptide: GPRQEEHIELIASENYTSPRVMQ

[3] = molecular target: T3, C. difficile iPGM (486-509) (C. difficile); experiment: X-ray crystal structure of the Fab-peptide complex
T3 construct: Final purified peptide used for crystallisation
T3 peptide: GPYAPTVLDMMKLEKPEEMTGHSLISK

[4] = molecular target: T4, E. coli iPGM (E. coli, UniProt P37689 1-514, limits assumed); experiment: Western blot
T4 sequence (looked up): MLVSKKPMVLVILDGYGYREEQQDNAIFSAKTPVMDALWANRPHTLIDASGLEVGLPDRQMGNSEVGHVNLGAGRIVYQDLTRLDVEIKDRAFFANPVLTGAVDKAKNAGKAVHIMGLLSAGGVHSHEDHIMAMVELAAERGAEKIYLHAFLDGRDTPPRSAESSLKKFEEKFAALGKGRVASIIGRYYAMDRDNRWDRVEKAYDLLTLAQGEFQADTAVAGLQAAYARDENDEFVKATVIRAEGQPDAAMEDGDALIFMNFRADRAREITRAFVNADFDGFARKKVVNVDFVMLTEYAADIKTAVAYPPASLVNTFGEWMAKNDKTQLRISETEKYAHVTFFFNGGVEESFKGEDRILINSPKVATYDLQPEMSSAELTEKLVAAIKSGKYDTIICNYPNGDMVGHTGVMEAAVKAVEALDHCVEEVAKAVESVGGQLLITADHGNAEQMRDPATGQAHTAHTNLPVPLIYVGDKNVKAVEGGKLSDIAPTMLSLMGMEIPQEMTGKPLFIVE

Binder | binding result [1] | also measured
B1 | binds | 
B2 |  | binding result [2]: binds; binding result [3]: binds
B3 | binds | binding result [4]: no binding
B4 | binds | 
B5 | binds | 
B6 | binds | 
B7 | binds | 
B8 | binds | 
